Here are results for 1 molecule from paper PMC6611371 (Research and Practice in Thrombosis and Haemostasis, 2019).

Targets include FVIIaDV (Homo sapiens, UniProt P08709, point mutant); FVIIaDQ (Homo sapiens, UniProt P08709, point mutant); FVIIaVQ (Homo sapiens, UniProt P08709, point mutant).
Common to all, as to assay: SPR
In general terms: In SPR one partner is held on a chip, and binding of the other changes the refractive index at the surface.

B1: mAb4F5 (antibody, V domains shown)
VH: EVKLVESGGGLVQPGGSRKLSCAASGFTFSDYGMAWVRQAPGKGPEWIAFISNLSRIYYADTVTGRFTISRENDKNTLFLEMSSLRSEDSAIYYCTRDDGYYRVDYWGQGATLTVSS
VL: DIVMTQSHKFLSTSVGNRVSITCKASQDVGIGLVSWYQQKPGQSPKLLIHWASTRHTGVPDRFTGSGSGTDFTLTINNVQSEDLATYFCQQFSNYPLTFGSGTRLEIK
With B1, the figures for the Kd with FVIIaDV, in the assay with FVIIaDQ and with FVIIaVQ were 1.1 nM, 1.9 nM and 130 nM, respectively. In addition, the koff in the assay with FVIIaDV is 0.00016 s⁻¹; in the assay with FVIIaDQ, 0.00024 s⁻¹; in the assay with FVIIaVQ, 0.0035 s⁻¹.

The term Kd denotes the equilibrium constant for the complex coming apart. A low value points to higher affinity. Usually koff stands for the rate constant with which the complex falls apart.
